Assay results: IntAct's records for PubMed 9294234

B1: Receptor protein kinase CLAVATA1 (Arabidopsis thaliana (Mouse-ear cress)), Q9SYQ8 (parent)
chain: MAMRLLKTHLLFLHLYLFFSPCFAYTDMEVLLNLKSSMIGPKGHGLHDWIHSSSPDAHCSFSGVSCDDDARVISLNVSFTPLFGTISPEIGMLTHLVNLTLAANNFTGELPLEMKSLTSLKVLNISNNGNLTGTFPGEILKAMVDLEVLDTYNNNFNGKLPPEMSELKKLKYLSFGGNFFSGEIPESYGDIQSLEYLGLNGAGLSGKSPAFLSRLKNLREMYIGYYNSYTGGVPPEFGGLTKLEILDMASCTLTGEIPTSLSNLKHLHTLFLHINNLTGHIPPELSGLVSLKSLDLSINQLTGEIPQSFINLGNITLINLFRNNLYGQIPEAIGELPKLEVFEVWENNFTLQLPANLGRNGNLIKLDVSDNHLTGLIPKDLCRGEKLEMLILSNNFFFGPIPEELGKCKSLTKIRIVKNLLNGTVPAGLFNLPLVTIIELTDNFFSGELPVTMSGDVLDQIYLSNNWFSGEIPPAIGNFPNLQTLFLDRNRFRGNIPREIFELKHLSRINTSANNITGGIPDSISRCSTLISVDLSRNRINGEIPKGINNVKNLGTLNISGNQLTGSIPTGIGNMTSLTTLDLSFNDLSGRVPLGGQFLVFNETSFAGNTYLCLPHRVSCPTRPGQTSDHNHTALFSPSRIVITVIAAITGLILISVAIRQMNKKKNQKSLAWKLTAFQKLDFKSEDVLECLKEENIIGKGGAGIVYRGSMPNNVDVAIKRLVGRGTGRSDHGFTAEIQTLGRIRHRHIVRLLGYVANKDTNLLLYEYMPNGSLGELLHGSKGGHLQWETRHRVAVEAAKGLCYLHHDCSPLILHRDVKSNNILLDSDFEAHVADFGLAKFLVDGAASECMSSIAGSYGYIAPEYAYTLKVDEKSDVYSFGVVLLELIAGKKPVGEFGEGVDIVRWVRNTEEEITQPSDAAIVVAIVDPRLTGYPLTSVIHVFKIAMMCVEEEAAARPTMREVVHMLTNPPKSVANLIAF
partner: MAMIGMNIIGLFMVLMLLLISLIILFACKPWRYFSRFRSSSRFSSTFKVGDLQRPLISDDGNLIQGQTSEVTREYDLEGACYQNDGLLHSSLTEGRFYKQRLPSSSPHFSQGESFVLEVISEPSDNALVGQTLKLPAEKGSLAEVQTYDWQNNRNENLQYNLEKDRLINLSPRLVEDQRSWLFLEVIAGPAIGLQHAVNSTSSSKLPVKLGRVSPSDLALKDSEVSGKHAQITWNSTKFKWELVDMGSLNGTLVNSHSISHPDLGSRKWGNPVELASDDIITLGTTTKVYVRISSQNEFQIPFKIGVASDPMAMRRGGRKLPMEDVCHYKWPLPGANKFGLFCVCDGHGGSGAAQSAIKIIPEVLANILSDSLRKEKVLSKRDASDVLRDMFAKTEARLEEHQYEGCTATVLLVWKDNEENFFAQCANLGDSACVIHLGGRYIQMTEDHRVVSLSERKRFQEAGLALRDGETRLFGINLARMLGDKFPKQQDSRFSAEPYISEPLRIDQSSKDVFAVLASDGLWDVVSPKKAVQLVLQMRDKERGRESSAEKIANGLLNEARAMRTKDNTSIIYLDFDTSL

Variants of: B1
Conditions: with KAPP

Variant	effect of a mutation on the interaction
K720E	disrupting interaction
G856D	disrupting interaction

Variants of: B1
Conditions: with KAPP
Remark: another data set of the same source

Variant	effect of a mutation on the interaction
G856D	decreasing interaction
